Read-outs that look alike come from different tables or passages of the source.
Assays:
[1] = biological target: T1, S. aureus alpha-toxin (Staphylococcus aureus, UniProt P09616)
[2] = biological target: T1, S. aureus alpha-toxin; remark: listed apart in the source

Row | Binder | Kd [1] | Kd [2]
1 | DF1.1 variant HCDR3-P12A/LCDR3-S6R (antibody, V domains shown) VH: QVQLVQSGAEVKKPGSSVKVSCKTSGGTFNNVAINWVRQAPGQGLEWMGGIIPGLDTPNYAQKFQGRVTITADKSTTSTYLELSSLRSDDTAVYYCAREMEVSGRWRATEAFEIWGQGTMVTVSS VL: ETTLTQSPGTLSLSPGERATLSCRASQTISNNFVAWYQQKPGQAPRLLIYGASTRATGIPDRFSGSGSGTDFTLTISSLEPEDFAVYYCQQYGSRPYTFGQGTKVDIK | 330 nM | –
2 | DF1.1 variant HCDR3-S7R (antibody, V domains shown) VH: QVQLVQSGAEVKKPGSSVKVSCKTSGGTFNNVAINWVRQAPGQGLEWMGGIIPGLDTPNYAQKFQGRVTITADKSTTSTYLELSSLRSDDTAVYYCAREMEVRGRWRPTEAFEIWGQGTMVTVSS VL: ETTLTQSPGTLSLSPGERATLSCRASQTISNNFVAWYQQKPGQAPRLLIYGASTRATGIPDRFSGSGSGTDFTLTISSLEPEDFAVYYCQQYGSSPYTFGQGTKVDIK | – | 0.3 nM
3 | DF1.1 variant HCDR3-R11A (antibody, V domains shown) VH: QVQLVQSGAEVKKPGSSVKVSCKTSGGTFNNVAINWVRQAPGQGLEWMGGIIPGLDTPNYAQKFQGRVTITADKSTTSTYLELSSLRSDDTAVYYCAREMEVSGRWAPTEAFEIWGQGTMVTVSS VL: ETTLTQSPGTLSLSPGERATLSCRASQTISNNFVAWYQQKPGQAPRLLIYGASTRATGIPDRFSGSGSGTDFTLTISSLEPEDFAVYYCQQYGSSPYTFGQGTKVDIK | – | 0.8 nM
4 | DF1.1 variant LCDR3-Q1A (antibody, V domains shown) VH: QVQLVQSGAEVKKPGSSVKVSCKTSGGTFNNVAINWVRQAPGQGLEWMGGIIPGLDTPNYAQKFQGRVTITADKSTTSTYLELSSLRSDDTAVYYCAREMEVSGRWRPTEAFEIWGQGTMVTVSS VL: ETTLTQSPGTLSLSPGERATLSCRASQTISNNFVAWYQQKPGQAPRLLIYGASTRATGIPDRFSGSGSGTDFTLTISSLEPEDFAVYYCAQYGSSPYTFGQGTKVDIK | – | < 0.14 nM
5 | DF1.1 variant HCDR3-W10A/LCDR3-Y3A (antibody, V domains shown) VH: QVQLVQSGAEVKKPGSSVKVSCKTSGGTFNNVAINWVRQAPGQGLEWMGGIIPGLDTPNYAQKFQGRVTITADKSTTSTYLELSSLRSDDTAVYYCAREMEVSGRARPTEAFEIWGQGTMVTVSS VL: ETTLTQSPGTLSLSPGERATLSCRASQTISNNFVAWYQQKPGQAPRLLIYGASTRATGIPDRFSGSGSGTDFTLTISSLEPEDFAVYYCQQAGSSPYTFGQGTKVDIK | 440 nM | –
6 | DF1.1 variant LCDR3-G4R (antibody, V domains shown) VH: QVQLVQSGAEVKKPGSSVKVSCKTSGGTFNNVAINWVRQAPGQGLEWMGGIIPGLDTPNYAQKFQGRVTITADKSTTSTYLELSSLRSDDTAVYYCAREMEVSGRWRPTEAFEIWGQGTMVTVSS VL: ETTLTQSPGTLSLSPGERATLSCRASQTISNNFVAWYQQKPGQAPRLLIYGASTRATGIPDRFSGSGSGTDFTLTISSLEPEDFAVYYCQQYRSSPYTFGQGTKVDIK | – | < 0.14 nM
7 | DF1.1 variant HCDR3-W10A/LCDR3-Y8A (antibody, V domains shown) VH: QVQLVQSGAEVKKPGSSVKVSCKTSGGTFNNVAINWVRQAPGQGLEWMGGIIPGLDTPNYAQKFQGRVTITADKSTTSTYLELSSLRSDDTAVYYCAREMEVSGRARPTEAFEIWGQGTMVTVSS VL: ETTLTQSPGTLSLSPGERATLSCRASQTISNNFVAWYQQKPGQAPRLLIYGASTRATGIPDRFSGSGSGTDFTLTISSLEPEDFAVYYCQQYGSSPATFGQGTKVDIK | 440 nM | –
8 | DF1.1 variant HCDR3-P12A/LCDR3-Y3A (antibody, V domains shown) VH: QVQLVQSGAEVKKPGSSVKVSCKTSGGTFNNVAINWVRQAPGQGLEWMGGIIPGLDTPNYAQKFQGRVTITADKSTTSTYLELSSLRSDDTAVYYCAREMEVSGRWRATEAFEIWGQGTMVTVSS VL: ETTLTQSPGTLSLSPGERATLSCRASQTISNNFVAWYQQKPGQAPRLLIYGASTRATGIPDRFSGSGSGTDFTLTISSLEPEDFAVYYCQQAGSSPYTFGQGTKVDIK | 190 nM | –
9 | DF1.1 variant HCDR3-P12A/LCDR3-Y8A (antibody, V domains shown) VH: QVQLVQSGAEVKKPGSSVKVSCKTSGGTFNNVAINWVRQAPGQGLEWMGGIIPGLDTPNYAQKFQGRVTITADKSTTSTYLELSSLRSDDTAVYYCAREMEVSGRWRATEAFEIWGQGTMVTVSS VL: ETTLTQSPGTLSLSPGERATLSCRASQTISNNFVAWYQQKPGQAPRLLIYGASTRATGIPDRFSGSGSGTDFTLTISSLEPEDFAVYYCQQYGSSPATFGQGTKVDIK | 37 nM | –
10 | DF1.1 variant HCDR3-E5A (antibody, V domains shown) VH: QVQLVQSGAEVKKPGSSVKVSCKTSGGTFNNVAINWVRQAPGQGLEWMGGIIPGLDTPNYAQKFQGRVTITADKSTTSTYLELSSLRSDDTAVYYCAREMAVSGRWRPTEAFEIWGQGTMVTVSS VL: ETTLTQSPGTLSLSPGERATLSCRASQTISNNFVAWYQQKPGQAPRLLIYGASTRATGIPDRFSGSGSGTDFTLTISSLEPEDFAVYYCQQYGSSPYTFGQGTKVDIK | – | 0.4 nM
11 | DF1.1 variant LCDR3-P7A (antibody, V domains shown) VH: QVQLVQSGAEVKKPGSSVKVSCKTSGGTFNNVAINWVRQAPGQGLEWMGGIIPGLDTPNYAQKFQGRVTITADKSTTSTYLELSSLRSDDTAVYYCAREMEVSGRWRPTEAFEIWGQGTMVTVSS VL: ETTLTQSPGTLSLSPGERATLSCRASQTISNNFVAWYQQKPGQAPRLLIYGASTRATGIPDRFSGSGSGTDFTLTISSLEPEDFAVYYCQQYGSSAYTFGQGTKVDIK | – | < 0.14 nM
12 | DF1.1 variant HCDR3-A15R/LCDR3-Y3A (antibody, V domains shown) VH: QVQLVQSGAEVKKPGSSVKVSCKTSGGTFNNVAINWVRQAPGQGLEWMGGIIPGLDTPNYAQKFQGRVTITADKSTTSTYLELSSLRSDDTAVYYCAREMEVSGRWRPTERFEIWGQGTMVTVSS VL: ETTLTQSPGTLSLSPGERATLSCRASQTISNNFVAWYQQKPGQAPRLLIYGASTRATGIPDRFSGSGSGTDFTLTISSLEPEDFAVYYCQQAGSSPYTFGQGTKVDIK | 280 nM | –
13 | DF1.1 variant LCDR3-T9R (antibody, V domains shown) VH: QVQLVQSGAEVKKPGSSVKVSCKTSGGTFNNVAINWVRQAPGQGLEWMGGIIPGLDTPNYAQKFQGRVTITADKSTTSTYLELSSLRSDDTAVYYCAREMEVSGRWRPTEAFEIWGQGTMVTVSS VL: ETTLTQSPGTLSLSPGERATLSCRASQTISNNFVAWYQQKPGQAPRLLIYGASTRATGIPDRFSGSGSGTDFTLTISSLEPEDFAVYYCQQYGSSPYRFGQGTKVDIK | – | < 0.14 nM
14 | DF1.1 variant HCDR3-G8R (antibody, V domains shown) VH: QVQLVQSGAEVKKPGSSVKVSCKTSGGTFNNVAINWVRQAPGQGLEWMGGIIPGLDTPNYAQKFQGRVTITADKSTTSTYLELSSLRSDDTAVYYCAREMEVSRRWRPTEAFEIWGQGTMVTVSS VL: ETTLTQSPGTLSLSPGERATLSCRASQTISNNFVAWYQQKPGQAPRLLIYGASTRATGIPDRFSGSGSGTDFTLTISSLEPEDFAVYYCQQYGSSPYTFGQGTKVDIK | – | 0.4 nM
15 | DF1.1 variant HCDR3-R9A (antibody, V domains shown) VH: QVQLVQSGAEVKKPGSSVKVSCKTSGGTFNNVAINWVRQAPGQGLEWMGGIIPGLDTPNYAQKFQGRVTITADKSTTSTYLELSSLRSDDTAVYYCAREMEVSGAWRPTEAFEIWGQGTMVTVSS VL: ETTLTQSPGTLSLSPGERATLSCRASQTISNNFVAWYQQKPGQAPRLLIYGASTRATGIPDRFSGSGSGTDFTLTISSLEPEDFAVYYCQQYGSSPYTFGQGTKVDIK | – | 0.4 nM

Reference: patent US20130164308A1 (RINAT NEUROSCIENCE, published 2013)
